Several values for one entry are separate records, joined by “and”; a condition that tells them apart may be missing. Equal values may be shown once.
Key:
[1] = target: C41S SqrR (R. capsulatus); test: SEC + cross-linking
[2] = target: C107S SqrR (R. capsulatus); test: SEC + cross-linking

stoichiometry N [1]	stoichiometry N [2]	Substance
2	–	C41S SqrR (natural protein)
–	2 and 4	C107S SqrR (natural protein)

From article PMC5595413
